In patent US20140087995A1 (published 2014) one finds IC50 data, which are given here for six molecules.

Numbered stars: 1 amine (or outer) side, 2 acyl side, 3 side chain; on linkers, the order of the positions; unused ones are H or OH. Bridge positions count the residues as written; N and C are the ends. Side chains are listed from the residue outwards. Ends that are not written are not given here. * marks the point of attachment. C20 diacid = O=C(O)CCCCCCCCCCCCCCCCCCC(=O)*; C18 diacid = O=C(O)CCCCCCCCCCCCCCCCC(=O)*; C16 diacid = O=C(O)CCCCCCCCCCCCCCC(=O)*; γGlu = O=C(O)[C@H](CCC(=O)[*:2])N[*:1]

Sequences and labels used below:
T1: human amylin receptor (human, UniProt P30988 25-474; O60896 24-148, limits assumed)
T1 construct: whole, on cells; Calcitonin receptor plus RAMP-3 gives the amylin 3(a) receptor; membranes of Amylin 3(a)/CRE-luc cells were used; also called hAmylin-R; hAmylinR
T1 sequence (looked up) 1: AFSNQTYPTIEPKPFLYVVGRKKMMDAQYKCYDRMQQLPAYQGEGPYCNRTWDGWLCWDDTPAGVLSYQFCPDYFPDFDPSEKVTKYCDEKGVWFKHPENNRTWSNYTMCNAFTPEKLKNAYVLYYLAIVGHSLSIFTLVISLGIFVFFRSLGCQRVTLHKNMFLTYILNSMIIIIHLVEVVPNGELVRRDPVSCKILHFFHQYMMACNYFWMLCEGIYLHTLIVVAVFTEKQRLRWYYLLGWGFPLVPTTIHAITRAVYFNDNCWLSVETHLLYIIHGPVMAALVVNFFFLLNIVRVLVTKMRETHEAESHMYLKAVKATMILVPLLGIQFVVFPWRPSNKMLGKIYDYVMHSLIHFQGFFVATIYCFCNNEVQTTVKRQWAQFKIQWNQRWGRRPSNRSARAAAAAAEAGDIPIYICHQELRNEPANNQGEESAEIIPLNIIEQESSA
T1 sequence (looked up) 2: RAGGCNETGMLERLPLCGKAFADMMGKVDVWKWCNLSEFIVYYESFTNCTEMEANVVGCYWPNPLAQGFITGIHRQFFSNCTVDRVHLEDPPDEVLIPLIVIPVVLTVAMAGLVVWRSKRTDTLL

B1: N^ε1-[(4S)-4-carboxy-4-(15-carboxypentadecanoylamino)butanoyl]-[Arg17,Pro21,Pro27,His34]-h-amylin (peptide)
peptide: K([γGlu-C16 diacid])CNTATCATQRLANFLRHSSPNFGAIPSSTNVGHNTY-NH2
modifications: disulfide 2-7; N-terminus assumed
SMILES: CC[C@H](C)[C@H](NC(=O)[C@H](C)NC(=O)CNC(=O)[C@H](Cc1ccccc1)NC(=O)[C@H](CC(N)=O)NC(=O)[C@@H]1CCCN1C(=O)[C@H](CO)NC(=O)[C@H](CO)NC(=O)[C@H](Cc1c[nH]cn1)NC(=O)[C@H](CCCNC(=N)N)NC(=O)[C@H](CC(C)C)NC(=O)[C@H](Cc1ccccc1)NC(=O)[C@H](CC(N)=O)NC(=O)[C@H](C)NC(=O)[C@H](CC(C)C)NC(=O)[C@H](CCCNC(=N)N)NC(=O)[C@H](CCC(N)=O)NC(=O)[C@@H](NC(=O)[C@H](C)NC(=O)[C@@H]1CSSC[C@H](NC(=O)[C@@H](N)CCCCNC(=O)CC[C@H](NC(=O)CCCCCCCCCCCCCCC(=O)O)C(=O)O)C(=O)N[C@@H](CC(N)=O)C(=O)N[C@@H]([C@@H](C)O)C(=O)N[C@@H](C)C(=O)N[C@@H]([C@@H](C)O)C(=O)N1)[C@@H](C)O)C(=O)N1CCC[C@H]1C(=O)N[C@@H](CO)C(=O)N[C@@H](CO)C(=O)N[C@H](C(=O)N[C@@H](CC(N)=O)C(=O)N[C@H](C(=O)NCC(=O)N[C@@H](Cc1c[nH]cn1)C(=O)N[C@@H](CC(N)=O)C(=O)N[C@H](C(=O)N[C@@H](Cc1ccc(O)cc1)C(N)=O)[C@@H](C)O)C(C)C)[C@@H](C)O
notes: also called 17R, 21P, 27P, 34H
B2: N^ε1-[(4S)-4-carboxy-4-(19-carboxynonadecanoylamino)butanoyl]-[Ala14,Arg17,Pro21,Pro27,Pro34]-h-amylin (peptide)
peptide: K([γGlu-C20 diacid])CNTATCATQRLAAFLRHSSPNFGAIPSSTNVGPNTY-NH2
modifications: disulfide 2-7; N-terminus assumed
SMILES: CC[C@H](C)[C@H](NC(=O)[C@H](C)NC(=O)CNC(=O)[C@H](Cc1ccccc1)NC(=O)[C@H](CC(N)=O)NC(=O)[C@@H]1CCCN1C(=O)[C@H](CO)NC(=O)[C@H](CO)NC(=O)[C@H](Cc1c[nH]cn1)NC(=O)[C@H](CCCNC(=N)N)NC(=O)[C@H](CC(C)C)NC(=O)[C@H](Cc1ccccc1)NC(=O)[C@H](C)NC(=O)[C@H](C)NC(=O)[C@H](CC(C)C)NC(=O)[C@H](CCCNC(=N)N)NC(=O)[C@H](CCC(N)=O)NC(=O)[C@@H](NC(=O)[C@H](C)NC(=O)[C@@H]1CSSC[C@H](NC(=O)[C@@H](N)CCCCNC(=O)CC[C@H](NC(=O)CCCCCCCCCCCCCCCCCCC(=O)O)C(=O)O)C(=O)N[C@@H](CC(N)=O)C(=O)N[C@@H]([C@@H](C)O)C(=O)N[C@@H](C)C(=O)N[C@@H]([C@@H](C)O)C(=O)N1)[C@@H](C)O)C(=O)N1CCC[C@H]1C(=O)N[C@@H](CO)C(=O)N[C@@H](CO)C(=O)N[C@H](C(=O)N[C@@H](CC(N)=O)C(=O)N[C@H](C(=O)NCC(=O)N1CCC[C@H]1C(=O)N[C@@H](CC(N)=O)C(=O)N[C@H](C(=O)N[C@@H](Cc1ccc(O)cc1)C(N)=O)[C@@H](C)O)C(C)C)[C@@H](C)O
notes: also called 14A, 17R, 21P, 27P, 34P
B3: N^ε1-[(4S)-4-carboxy-4-(19-carboxynonadecanoylamino)butanoyl]-[Arg14,Arg17,Pro21,Pro27,Pro34]-h-amylin (peptide)
peptide: K([γGlu-C20 diacid])CNTATCATQRLARFLRHSSPNFGAIPSSTNVGPNTY-NH2
modifications: disulfide 2-7; N-terminus assumed
SMILES: CC[C@H](C)[C@H](NC(=O)[C@H](C)NC(=O)CNC(=O)[C@H](Cc1ccccc1)NC(=O)[C@H](CC(N)=O)NC(=O)[C@@H]1CCCN1C(=O)[C@H](CO)NC(=O)[C@H](CO)NC(=O)[C@H](Cc1c[nH]cn1)NC(=O)[C@H](CCCNC(=N)N)NC(=O)[C@H](CC(C)C)NC(=O)[C@H](Cc1ccccc1)NC(=O)[C@H](CCCNC(=N)N)NC(=O)[C@H](C)NC(=O)[C@H](CC(C)C)NC(=O)[C@H](CCCNC(=N)N)NC(=O)[C@H](CCC(N)=O)NC(=O)[C@@H](NC(=O)[C@H](C)NC(=O)[C@@H]1CSSC[C@H](NC(=O)[C@@H](N)CCCCNC(=O)CC[C@H](NC(=O)CCCCCCCCCCCCCCCCCCC(=O)O)C(=O)O)C(=O)N[C@@H](CC(N)=O)C(=O)N[C@@H]([C@@H](C)O)C(=O)N[C@@H](C)C(=O)N[C@@H]([C@@H](C)O)C(=O)N1)[C@@H](C)O)C(=O)N1CCC[C@H]1C(=O)N[C@@H](CO)C(=O)N[C@@H](CO)C(=O)N[C@H](C(=O)N[C@@H](CC(N)=O)C(=O)N[C@H](C(=O)NCC(=O)N1CCC[C@H]1C(=O)N[C@@H](CC(N)=O)C(=O)N[C@H](C(=O)N[C@@H](Cc1ccc(O)cc1)C(N)=O)[C@@H](C)O)C(C)C)[C@@H](C)O
notes: also called 14R, 17R, 21P, 27P, 34P
B4: N^ε1-[(4S)-4-carboxy-4-(17-carboxyheptadecanoylamino)butanoyl]-[Arg17,Pro21,Pro27,His34]-h-amylin (peptide)
peptide: K([γGlu-C18 diacid])CNTATCATQRLANFLRHSSPNFGAIPSSTNVGHNTY-NH2
modifications: disulfide 2-7; N-terminus assumed
SMILES: CC[C@H](C)[C@H](NC(=O)[C@H](C)NC(=O)CNC(=O)[C@H](Cc1ccccc1)NC(=O)[C@H](CC(N)=O)NC(=O)[C@@H]1CCCN1C(=O)[C@H](CO)NC(=O)[C@H](CO)NC(=O)[C@H](Cc1c[nH]cn1)NC(=O)[C@H](CCCNC(=N)N)NC(=O)[C@H](CC(C)C)NC(=O)[C@H](Cc1ccccc1)NC(=O)[C@H](CC(N)=O)NC(=O)[C@H](C)NC(=O)[C@H](CC(C)C)NC(=O)[C@H](CCCNC(=N)N)NC(=O)[C@H](CCC(N)=O)NC(=O)[C@@H](NC(=O)[C@H](C)NC(=O)[C@@H]1CSSC[C@H](NC(=O)[C@@H](N)CCCCNC(=O)CC[C@H](NC(=O)CCCCCCCCCCCCCCCCC(=O)O)C(=O)O)C(=O)N[C@@H](CC(N)=O)C(=O)N[C@@H]([C@@H](C)O)C(=O)N[C@@H](C)C(=O)N[C@@H]([C@@H](C)O)C(=O)N1)[C@@H](C)O)C(=O)N1CCC[C@H]1C(=O)N[C@@H](CO)C(=O)N[C@@H](CO)C(=O)N[C@H](C(=O)N[C@@H](CC(N)=O)C(=O)N[C@H](C(=O)NCC(=O)N[C@@H](Cc1c[nH]cn1)C(=O)N[C@@H](CC(N)=O)C(=O)N[C@H](C(=O)N[C@@H](Cc1ccc(O)cc1)C(N)=O)[C@@H](C)O)C(C)C)[C@@H](C)O
notes: as for B1
B5: N^ε1-[(4S)-4-carboxy-4-(19-carboxynonadecanoylamino)butanoyl]-[Ala14,Arg17,Pro21,Pro27,His34]-h-amylin (peptide)
peptide: K([γGlu-C20 diacid])CNTATCATQRLAAFLRHSSPNFGAIPSSTNVGHNTY-NH2
modifications: disulfide 2-7; N-terminus assumed
SMILES: CC[C@H](C)[C@H](NC(=O)[C@H](C)NC(=O)CNC(=O)[C@H](Cc1ccccc1)NC(=O)[C@H](CC(N)=O)NC(=O)[C@@H]1CCCN1C(=O)[C@H](CO)NC(=O)[C@H](CO)NC(=O)[C@H](Cc1c[nH]cn1)NC(=O)[C@H](CCCNC(=N)N)NC(=O)[C@H](CC(C)C)NC(=O)[C@H](Cc1ccccc1)NC(=O)[C@H](C)NC(=O)[C@H](C)NC(=O)[C@H](CC(C)C)NC(=O)[C@H](CCCNC(=N)N)NC(=O)[C@H](CCC(N)=O)NC(=O)[C@@H](NC(=O)[C@H](C)NC(=O)[C@@H]1CSSC[C@H](NC(=O)[C@@H](N)CCCCNC(=O)CC[C@H](NC(=O)CCCCCCCCCCCCCCCCCCC(=O)O)C(=O)O)C(=O)N[C@@H](CC(N)=O)C(=O)N[C@@H]([C@@H](C)O)C(=O)N[C@@H](C)C(=O)N[C@@H]([C@@H](C)O)C(=O)N1)[C@@H](C)O)C(=O)N1CCC[C@H]1C(=O)N[C@@H](CO)C(=O)N[C@@H](CO)C(=O)N[C@H](C(=O)N[C@@H](CC(N)=O)C(=O)N[C@H](C(=O)NCC(=O)N[C@@H](Cc1c[nH]cn1)C(=O)N[C@@H](CC(N)=O)C(=O)N[C@H](C(=O)N[C@@H](Cc1ccc(O)cc1)C(N)=O)[C@@H](C)O)C(C)C)[C@@H](C)O
notes: also called 14A, 17R, 21P, 27P, 34H
B6: N^ε1-[(4S)-4-carboxy-4-(19-carboxynonadecanoylamino)butanoyl]-[Arg17,Pro21,Pro27,Arg34]-h-amylin (peptide)
peptide: K([γGlu-C20 diacid])CNTATCATQRLANFLRHSSPNFGAIPSSTNVGRNTY-NH2
modifications: disulfide 2-7; N-terminus assumed
SMILES: CC[C@H](C)[C@H](NC(=O)[C@H](C)NC(=O)CNC(=O)[C@H](Cc1ccccc1)NC(=O)[C@H](CC(N)=O)NC(=O)[C@@H]1CCCN1C(=O)[C@H](CO)NC(=O)[C@H](CO)NC(=O)[C@H](Cc1c[nH]cn1)NC(=O)[C@H](CCCNC(=N)N)NC(=O)[C@H](CC(C)C)NC(=O)[C@H](Cc1ccccc1)NC(=O)[C@H](CC(N)=O)NC(=O)[C@H](C)NC(=O)[C@H](CC(C)C)NC(=O)[C@H](CCCNC(=N)N)NC(=O)[C@H](CCC(N)=O)NC(=O)[C@@H](NC(=O)[C@H](C)NC(=O)[C@@H]1CSSC[C@H](NC(=O)[C@@H](N)CCCCNC(=O)CC[C@H](NC(=O)CCCCCCCCCCCCCCCCCCC(=O)O)C(=O)O)C(=O)N[C@@H](CC(N)=O)C(=O)N[C@@H]([C@@H](C)O)C(=O)N[C@@H](C)C(=O)N[C@@H]([C@@H](C)O)C(=O)N1)[C@@H](C)O)C(=O)N1CCC[C@H]1C(=O)N[C@@H](CO)C(=O)N[C@@H](CO)C(=O)N[C@H](C(=O)N[C@@H](CC(N)=O)C(=O)N[C@H](C(=O)NCC(=O)N[C@@H](CCCNC(=N)N)C(=O)N[C@@H](CC(N)=O)C(=O)N[C@H](C(=O)N[C@@H](Cc1ccc(O)cc1)C(N)=O)[C@@H](C)O)C(C)C)[C@@H](C)O
notes: also called 17R, 21P, 27P, 34R

In the assay the target is T1, human amylin receptor. Briefly: SPA competition binding, displacement of 125I-rat amylin from membranes with human amylin 3(a) receptor (Assay V). The procedure, abridged: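 SPA beads + BHK amylin 3(a)/CRE-luc membranes, 35 ng/μL final; buffer 50 mM Hepes pH 7.4, 1 mM CaCl2, 5 mM MgCl₂, 0.1% OA, 0.02% Tween20. 120 min, 25° C, shaken; scintillation count. IC₅₀ by one-site binding competition fit, taken as receptor affinity.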
(Displacement assays read how much labelled ligand stays bound in the presence of the test substance.)
As to B1, the IC50 (commonly the concentration that gives 50% inhibition) amounted to 0.58 nM. In the case of B2, the IC50 amounted to 0.148 nM.

Regarding B3, the IC50 was 0.649 nM. B4 gave an IC50 of 0.382 nM. This IC50 is about 1.7-fold lower than that of the molecule before. As for B5, the figure is 0.176 nM. B6 showed an IC50 of 0.79 nM.
